The values below come from PMC6451106.

Holding throughout (assay): MST
In test [1] the target is human 80S ribosome (non-translating, Puromycin-treated monosomes) (human (endogenous in HeLa)).
The target of test [2] is rabbit reticulocyte ribosome-nascent chain complexes exposing an SRP-targeting signal (rabbit | not stated).
For test [3], the target named is human 80S ribosome (non-translating, Puromycin-treated monosomes) (human (endogenous in HeLa)). The source holds these as a separate data set.

Where two headings read alike, the source gives them in different places. A value given as a limit tells only on which side of the number the result lay.

The term Kd denotes the concentration at which binding is half-saturated. A high value points to lower affinity. Take SRP54MΔC (domain or fragment): the Kd in test [1] stood at 100 nM. Molecule SRP54NG (domain or fragment) returned a Kd in test [1] of 1650 nM. In test [1], SRP54ΔC (domain or fragment) came in with a KD1 (two-site fit, PALMIST) of less than 100 nM; a KD of the first (high-affinity) binding event of 100 nM; a Kd of 200 nM. Molecule “SRP68/72ΔC (SRP68/72 heterodimer with the C-terminus of SRP72 truncated) (from UniProt Q9UHB9;O76094) (complex)” registered a Kd in test [1] of 420 nM.

Molecule “SRP72-RBD+C (C-terminal region of SRP72 including the RBD) (domain or fragment)” returned a Kd in test [1] of 920 nM.

In test [1], “SRPS/SR complex with SRP54 (without signal sequence) (from UniProt P09132;Q9UHB9;O76094;P61011;P08240;Q9Y5M8)” yielded a Kd of less than 1.4 nM. “SRPS/SR complex with SRP54ss (signal sequence fused to SRP54) (from UniProt P09132;Q9UHB9;O76094;P61011;P08240;Q9Y5M8)”: the Kd in test [1] was less than 2 nM. The same measure, in the same setting: as for “SRPS/SR complex with SRP54ΔC (without signal sequence) (from UniProt P09132;Q9UHB9;O76094;P61011;P08240;Q9Y5M8)”, the figure is less than 1.2 nM. “SRαΔRBR/SRβ (from UniProt P08240;Q9Y5M8) (complex)” yielded a Kd in test [1] greater than 7500 nM.

In turn, “SRαβ heterodimer (SRP receptor; full-length SRα with SRβ lacking its N-terminal TMD) (from UniProt P08240;Q9Y5M8) (complex)” came in with a Kd in test [1] of 410 nM. Same read-out and setting: as for “complete SRPS (SRP S domain: SRPS RNA, SRP19, SRP68/72 and full-length SRP54) (from UniProt P09132;Q9UHB9;O76094;P61011) (complex)”, the figure is less than 4.7 nM; as for “complete SRPS with SRP54ΔC (SRPS RNA, SRP19, SRP68/72 and SRP54ΔC) (from UniProt P09132;Q9UHB9;O76094;P61011) (complex)”, less than 4.7 nM. With “entire human SRP (native 7SL RNA and all six SRP proteins) (from UniProt P49458;P37108;P09132;Q9UHB9;O76094;P61011) (complex)”, the concentration of saturation in test [1] was less than 2.2 nM.

In test [2], “entire recombinant SRPS/SR system as measured with RNCs (from UniProt P09132;Q9UHB9;O76094;P61011;P08240;Q9Y5M8) (complex)” came in with an equilibrium dissociation constant (Kd) of less than 0.9 nM.

With “quaternary SRPS complex with the SRP68/72 heterodimer without the SRP72 C-terminus (RNA/SRP19/SRP68/72ΔC) (from UniProt P09132;Q9UHB9;O76094)”, in test [1], the Kd was 370 nM.

“quaternary SRPS complex with the truncated SRP68/72–RBD constructs (RNA/SRP19/SRP68-RBD/SRP72-RBD in (from UniProt P09132 1-144)” had a Kd in test [1] of 1650 nM. For orientation: stoichiometry N means the number of molecules, sites or subunits per partner or assembly. In test [1], “ternary SRPS complex (SRP RNA/SRP19/54) with full-length SRP54 (from UniProt P09132;P61011)” gave a Kd of less than 4.7 nM and a stoichiometry N of 1.

B1: Chloroplast SRP54 from Arabidopsis thaliana (natural protein)
chain: EMFGQLTGGLEAAWSKLKGEEVLTKDNIAEPMRDIRRALLEADVSLPVVRRFVQSVSDQAVGMGVIRGVKPDQQLVKIVHDELVKLMGGEVSELQFAKSGPTVILLAGLQGVGKTTVCAKLACYLKKQGKSCMLIAGDVYRPAAIDQLVILGEQVGVPVYTAGTDVKPADIAKQGLKEAKKNNVDVVIMDTAGRLQIDKGMMDELKDVKKFLNPTEVLLVVDAMTGQEAAALVTTFNVEIGITGAILTKLDGDSRGGAALSVKEVSGKPIKLVGRGERMEDLEPFYPDRMAGRILGMGDVLSFVEKATEVMRQEDAEDLQKKIMSAKFDFNDFLKQTRAVAKMGSMTRVLGMIPGMGKVSPAQIREAEKNLLVMEAMIEVMTPEERERPELLAESPERRKRIAKDSGKTEQQVSALVAQIFQMRVKMKNLMGVMEGGSIPALSGLEDALKAEQKAPPGTARRKRKADSRKKFVESASSKPGPRGFGSGN
Molecule B1 displayed a Kd in test [3] greater than 1200 nM.

B2: SRP72 (natural protein)
chain: MASGGSGGVSVPALWSEVNRYGQNGDFTRALKTVNKILQINKDDVTALHCKVVCLIQNGSFKEALNVINTHTKVLANNSLSFEKAYCEYRLNRIENALKTIESANQQTDKLKELYGQVLYRLERYDECLAVYRDLVRNSQDDYDEERKTNLSAVVAAQSNWEKVVPENLGLQEGTHELCYNTACALIGQGQLNQAMKILQKAEDLCRRSLSEDTDGTEEDPQAELAIIHGQMAYILQLQGRTEEALQLYNQIIKLKPTDVGLLAVIANNIITINKDQNVFDSKKKVKLTNAEGVEFKLSKKQLQAIEFNKALLAMYTNQAEQCRKISASLQSQSPEHLLPVLIQAAQLCREKQHTKAIELLQEFSDQHPENAAEIKLTMAQLKISQGNISKACLILRSIEELKHKPGMVSALVTMYSHEEDIDSAIEVFTQAIQWYQNHQPKSPAHLSLIREAANFKLKYGRKKEAISDLQQLWKQNPKDIHTLAQLISAYSLVDPEKAKALSKHLPSSDSMSLKVDVEALENSAGATYIRKKGGKVTGDSQPKEQGQGDLKKKKKKKKGKLPKNYDPKVTPDPERWLPMRERSYYRGRKKGKKKDQIGKGTQGATAGASSELDASKTVSSPPTSPRPGSAATVSASTSNIIPPRHQKPAGAPATKKKQQQKKKKGGKGGW
What is called EC50 is the midpoint of the concentration-response curve. Low readings indicate higher potency in that assay, high ones lower potency in that assay. In test [3], B2 displayed an EC50 of 520 nM and a Kd of 820 nM.

B3: SRP68/72 complete heterodimer (complex)
chain 1: MAAEKQVPGGGGGGGSGGGGGSGGGGSGGGRGAGGEENKENERPSAGSKANKEFGDSLSLEILQIIKESQQQHGLRHGDFQRYRGYCSRRQRRLRKTLNFKMGNRHKFTGKKVTEELLTDNRYLLLVLMDAERAWSYAMQLKQEANTEPRKRFHLLSRLRKAVKHAEELERLCESNRVDAKTKLEAQAYTAYLSGMLRFEHQEWKAAIEAFNKCKTIYEKLASAFTEEQAVLYNQRVEEISPNIRYCAYNIGDQSAINELMQMRLRSGGTEGLLAEKLEALITQTRAKQAATMSEVEWRGRTVPVKIDKVRIFLLGLADNEAAIVQAESEETKERLFESMLSECRDAIQVVREELKPDQKQRDYILEGEPGKVSNLQYLHSYLTYIKLSTAIKRNENMAKGLQRALLQQQPEDDSKRSPRPQDLIRLYDIILQNLVELLQLPGLEEDKAFQKEIGLKTLVFKAYRCFFIAQSYVLVKKWSEALVLYDRVLKYANEVNSDAGAFKNSLKDLPDVQELITQVRSEKCSLQAAAILDANDAHQTETSSSQVKDNKPLVERFETFCLDPSLVTKQANLVHFPPGFQPIPCKPLFFDLALNHVAFPPLEDKLEQKTKSGLTGYIKGIFGFRS
chain 2: B2 chain
For the molecule B3, in test [3], the EC50 stood at 160 nM.

B4: Ffh from E. coli (natural protein)
chain: MFDNLTDRLSRTLRNISGRGRLTEDNVKDTLREVRMALLEADVALPVVREFINRVKEKAVGHEVNKSLTPGQEFVKIVRNELVAAMGEENQTLNLAAQPPAVVLMAGLQGAGKTTSVGKLGKFLREKHKKKVLVVSADVYRPAAIKQLETLAEQVGVDFFPSDVGQKPVDIVNAALKEAKLKFYDVLLVDTAGRLHVDEAMMDEIKQVHASINPVETLFVVDAMTGQDAANTAKAFNEALPLTGVVLTKVDGDARGGAALSIRHITGKPIKFLGVGEKTEALEPFHPDRIASRILGMGDVLSLIEDIESKVDRAQAEKLASKLKKGDGFDLNDFLEQLRQMKNMGGMASLMGKLPGMGQIPDNVKSQMDDKVLVRMEAIINSMTMKERAKPEIIKGSRKRRIAAGCGMQVQDVNRLLKQFDDMQRMMKKMKKGGMAKMMRSMKGMMPPGFPGR
In test [3], B4 returned a Kd of 2300 nM.
